The text below walks through data of paper PMC3044768.

The target in this experiment is authentic wild-type SARS-CoV 3C-like protease (3CLpro) (SARS-CoV) (UniProt P0C6X7). Nature of the experiment: ITC. (ITC needs no label: the signal is the heat of the interaction.)

Consider “authentic wild-type SARS-CoV 3C-like protease (3CLpro) (from UniProt P0C6X7 3241-3546) (enzyme)”, for which the Kd (commonly the equilibrium constant for the complex coming apart) came to 21.4 µM.
